Data reported in paper PMC9018508.

Target: CD40L (UniProt P29965)
Assay: SPR

Sequence of UniProt P29965 (P29965 116-261): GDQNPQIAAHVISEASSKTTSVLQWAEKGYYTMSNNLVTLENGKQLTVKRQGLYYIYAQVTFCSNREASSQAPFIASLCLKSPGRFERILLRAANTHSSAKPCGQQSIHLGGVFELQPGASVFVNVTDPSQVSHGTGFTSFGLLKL

## 5c8Ile^L98 → 7-HCAA Fab
  Kd: 41.6 nM
